Tests used:
[1] = molecular target: T1, recombinant KIT D4/D5 polypeptide (D4/D5 region of human KIT, V308 to H515, with 5xHis tag) (human, UniProt P10721 26-519); experiment: binding assays on the D4/D5 region of human KIT (solid phase ELISA); IgG version of Fab Ab1 (Dyax reformatting), Example 2
T1 construct: also called recombinant antigen; recombinant IG domain four and five of the extracellular region of KIT

[2] = molecular target: T2, full-length, wild-type human KIT (human, UniProt P10721 26-976); experiment: cell-based or functional assay
[3] = molecular target: T2, full-length, wild-type human KIT; experiment: immunofluorescence staining with Ab1-Alexa488 on CHO/KIT and NIH3T3/KIT cells, confocal microscopy
Protocol: Immunofluorescence staining assays were carried to determine if antibody Ab1 was internalized by cells. The immunofluorescence staining assays were carried out essentially as described below. Materials and reagents for the immunofluorescence assays include the following: [0745] Tissue culture slides: Poly-D-Lysine coated four or eight well chamber slide [0746] Antibody: Antibody Ab1 conjugated with the fluorescent dye Alexa-488 (Invitrogen) [0747] Fixative: 4% paraformaldehyde; store 40% PFA microscopy grade in fridge and dilute 1:10 with PBS just before use [0748] Mounting media: Prolong Gold antifade+DAPI [0749] CHO cells engineered to express exogenous human, wild-type KIT (full-length) (“CHO/KIT”) [0750] NIH3T3 cells engineered to express exogenous human, wild-type KIT (full-length) [0751] (“NIH3T3/KIT”)
15,000 to 30,000 CHO/KIT cells or NIH3T3/KIT cells were seeded into each well of the tissue culture slide. The cells were cultivated for at least 24 hrs before starvation in media containing no fetal bovin serum overnight. Ab1-Alexa488 was diluted in starvation media containing 1% bovine serum albumin and pipetted onto the cell layer. 5 to 60 min later, cell layers were washed once with PBS (room temperature). Cell layers were fixed for 18 min with fixative at room temperature, and were washed 3 times with PBS. […] Internalization of the antibody was analyzed by confocal microscopy.

T2 sequence (P10721 other isoform, or with tags, fused parts or gaps limits assumed): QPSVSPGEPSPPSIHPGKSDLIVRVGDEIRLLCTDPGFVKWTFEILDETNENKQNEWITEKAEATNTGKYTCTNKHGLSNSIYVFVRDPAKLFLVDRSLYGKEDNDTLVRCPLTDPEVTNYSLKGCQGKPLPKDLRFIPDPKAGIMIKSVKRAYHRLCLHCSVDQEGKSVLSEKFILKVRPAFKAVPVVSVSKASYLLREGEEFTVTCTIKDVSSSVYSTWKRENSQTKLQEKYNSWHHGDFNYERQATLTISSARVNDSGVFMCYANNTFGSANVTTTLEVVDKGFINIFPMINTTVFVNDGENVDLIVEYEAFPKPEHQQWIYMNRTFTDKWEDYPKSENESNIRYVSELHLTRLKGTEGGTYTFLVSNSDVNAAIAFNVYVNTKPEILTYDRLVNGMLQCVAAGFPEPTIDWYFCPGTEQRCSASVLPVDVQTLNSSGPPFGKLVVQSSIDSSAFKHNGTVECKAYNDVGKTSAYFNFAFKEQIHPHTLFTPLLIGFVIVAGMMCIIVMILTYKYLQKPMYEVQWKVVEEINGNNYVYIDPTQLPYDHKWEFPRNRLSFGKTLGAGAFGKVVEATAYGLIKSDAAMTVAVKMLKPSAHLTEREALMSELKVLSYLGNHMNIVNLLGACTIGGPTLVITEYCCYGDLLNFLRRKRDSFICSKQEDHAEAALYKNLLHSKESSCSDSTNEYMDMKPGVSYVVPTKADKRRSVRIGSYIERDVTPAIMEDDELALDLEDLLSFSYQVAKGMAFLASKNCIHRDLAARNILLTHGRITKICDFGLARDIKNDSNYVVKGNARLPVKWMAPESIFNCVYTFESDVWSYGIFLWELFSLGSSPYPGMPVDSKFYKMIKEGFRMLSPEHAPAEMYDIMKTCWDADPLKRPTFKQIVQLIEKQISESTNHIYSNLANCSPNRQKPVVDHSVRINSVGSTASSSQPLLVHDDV
T1 sequence (P10721 other isoform, or with tags, fused parts or gaps limits assumed): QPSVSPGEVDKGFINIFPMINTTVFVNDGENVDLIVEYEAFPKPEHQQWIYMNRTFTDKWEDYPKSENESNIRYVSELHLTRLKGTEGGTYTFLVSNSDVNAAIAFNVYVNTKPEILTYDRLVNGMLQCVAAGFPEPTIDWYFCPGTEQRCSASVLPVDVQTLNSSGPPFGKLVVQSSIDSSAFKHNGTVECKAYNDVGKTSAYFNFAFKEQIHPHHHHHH

B1: IgG version of Fab antibody Ab1 (antibody, V domains shown)
VH: EVQLLESGGGLVQPGGSLRLSCAASGFTFSNYLMSWVRQAPGKGLEWVSSIVPSGGFTHYADSVKGRFTISRDNSKNTLYLQMNSLRAEDTAVYYCARLQTGSWRVHAFDIWGQGTMVTVSS
VL: DIQMTQSPTSLSAFVGDRVTITCQASQDIGNYLNWYQQKSGEPPKLLVYDASFLKKGVPSRFSGSGSGTQYFLTIYSLQPEDFATYFCQHSDNLSVTFGGGTKVEVK
notes: Variable regions of Fab Ab1 cloned into the Dyax pR vector
EC50 [1]: ~0.007 nM
IC50 of inhibition of KIT phosphorylation (phospho-KIT assay) [2]: ~2.5 nM

B2: Antibody Ab1 conjugated with the fluorescent dye Alexa-488 (antibody, V domains shown)
VH: EVQLLESGGGLVQPGGSLRLSCAASGFTFSNYLMSWVRQAPGKGLEWVSSIVPSGGFTHYADSVKGRFTISRDNSKNTLYLQMNSLRAEDTAVYYCARLQTGSWRVHAFDIWGQGTMVTVSS
VL: DIQMTQSPTSLSAFVGDRVTITCQASQDIGNYLNWYQQKSGEPPKLLVYDASFLKKGVPSRFSGSGSGTQYFLTIYSLQPEDFATYFCQHSDNLSVTFGGGTKVEVK
modifications: conjugated with the fluorescent dye Alexa-488 (chain and site not stated)
notes: also called Ab1-Alexa488
binding result [3]: binds

Reference: patent US20130011406A1 (KOLLTAN PHARMACEUTICALS, published 2013)
